According to the supplement of paper PMC10567573:

B1: SPDEF (parent)
chain: FQELAGKELCAMSEEQFRQRSPLG

Variants of: B1
Experiment: protein stability index of a GFP-peptide fusion (GPS, HEK-293T) (PSI 1-6); higher = more stable
Settings: c terminus: a fixed tail appended
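Also: lentivirally expressed fusions sorted by FACS into six bins by GFP to DsRed ratio, PSI derived from sequencing read proportions per bin multiplied by bin number.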

Variant	protein stability index
FQERAGKELCAMSEEQFRQRSPLG	3
FQESAGKELCAMSEEQFRQRSPLG	4.01
FQETAGKELCAMSEEQFRQRSPLG	3.94
FQEVAGKELCAMSEEQFRQRSPLG	3.85
FQEWAGKELCAMSEEQFRQRSPLG	2.4
FQEYAGKELCAMSEEQFRQRSPLG	2.61
FQELCGKELCAMSEEQFRQRSPLG	2.69
FQELDGKELCAMSEEQFRQRSPLG	3.71
FQELEGKELCAMSEEQFRQRSPLG	3.83
FQELFGKELCAMSEEQFRQRSPLG	2.5
FQELGGKELCAMSEEQFRQRSPLG	2.88
FQELHGKELCAMSEEQFRQRSPLG	2.73
FQELIGKELCAMSEEQFRQRSPLG	2.47
FQELKGKELCAMSEEQFRQRSPLG	3.27
FQELLGKELCAMSEEQFRQRSPLG	1.82
FQELMGKELCAMSEEQFRQRSPLG	2.58
FQELNGKELCAMSEEQFRQRSPLG	2.82
FQELPGKELCAMSEEQFRQRSPLG	3.58
FQELQGKELCAMSEEQFRQRSPLG	3.32
FQELRGKELCAMSEEQFRQRSPLG	2.17
FQELSGKELCAMSEEQFRQRSPLG	2.24
FQELTGKELCAMSEEQFRQRSPLG	2.46
FQELVGKELCAMSEEQFRQRSPLG	3.44
FQELWGKELCAMSEEQFRQRSPLG	1.9

Variant	protein stability index
FQELYGKELCAMSEEQFRQRSPLG	2.6
FQELAAKELCAMSEEQFRQRSPLG	2.4
FQELACKELCAMSEEQFRQRSPLG	2.28
FQELADKELCAMSEEQFRQRSPLG	3.62
FQELAEKELCAMSEEQFRQRSPLG	4.18
FQELAFKELCAMSEEQFRQRSPLG	1.84
FQELAHKELCAMSEEQFRQRSPLG	2.73
FQELAIKELCAMSEEQFRQRSPLG	2.69
FQELAKKELCAMSEEQFRQRSPLG	3.03
FQELALKELCAMSEEQFRQRSPLG	2.44
FQELAMKELCAMSEEQFRQRSPLG	2.46
FQELANKELCAMSEEQFRQRSPLG	3.4
FQELAPKELCAMSEEQFRQRSPLG	3.7
FQELAQKELCAMSEEQFRQRSPLG	2.68
FQELARKELCAMSEEQFRQRSPLG	2.58
FQELASKELCAMSEEQFRQRSPLG	2.53
FQELATKELCAMSEEQFRQRSPLG	3.32
FQELAVKELCAMSEEQFRQRSPLG	1.68
FQELAWKELCAMSEEQFRQRSPLG	2.65
FQELAYKELCAMSEEQFRQRSPLG	1.9
FQELAGAELCAMSEEQFRQRSPLG	2.58
FQELAGCELCAMSEEQFRQRSPLG	1.99
FQELAGDELCAMSEEQFRQRSPLG	4.25
FQELAGEELCAMSEEQFRQRSPLG	3.66

Variant	protein stability index
FQELAGFELCAMSEEQFRQRSPLG	2.18
FQELAGGELCAMSEEQFRQRSPLG	3
FQELAGHELCAMSEEQFRQRSPLG	2.86
FQELAGIELCAMSEEQFRQRSPLG	1.81
FQELAGLELCAMSEEQFRQRSPLG	2.3
FQELAGMELCAMSEEQFRQRSPLG	2.97
FQELAGNELCAMSEEQFRQRSPLG	2.84
FQELAGPELCAMSEEQFRQRSPLG	3.35
FQELAGQELCAMSEEQFRQRSPLG	4
FQELAGRELCAMSEEQFRQRSPLG	2.3
FQELAGSELCAMSEEQFRQRSPLG	2.94
FQELAGTELCAMSEEQFRQRSPLG	3.38
FQELAGVELCAMSEEQFRQRSPLG	2.61
FQELAGWELCAMSEEQFRQRSPLG	1.73
FQELAGYELCAMSEEQFRQRSPLG	1.58
FQELAGKALCAMSEEQFRQRSPLG	2.37
FQELAGKDLCAMSEEQFRQRSPLG	2.79
FQELAGKFLCAMSEEQFRQRSPLG	2.79
FQELAGKGLCAMSEEQFRQRSPLG	1.73
FQELAGKHLCAMSEEQFRQRSPLG	1.77
FQELAGKILCAMSEEQFRQRSPLG	1.53
FQELAGKKLCAMSEEQFRQRSPLG	2.32
FQELAGKLLCAMSEEQFRQRSPLG	2.5
FQELAGKMLCAMSEEQFRQRSPLG	2.5

Variant	protein stability index
FQELAGKNLCAMSEEQFRQRSPLG	2.27
FQELAGKPLCAMSEEQFRQRSPLG	2.06
FQELAGKQLCAMSEEQFRQRSPLG	2.25
FQELAGKRLCAMSEEQFRQRSPLG	1.78
FQELAGKSLCAMSEEQFRQRSPLG	2.12
FQELAGKTLCAMSEEQFRQRSPLG	1.99
FQELAGKVLCAMSEEQFRQRSPLG	2.52
FQELAGKWLCAMSEEQFRQRSPLG	2.87
FQELAGKYLCAMSEEQFRQRSPLG	1.89
FQELAGKEACAMSEEQFRQRSPLG	3.41
FQELAGKECCAMSEEQFRQRSPLG	2.63
FQELAGKEDCAMSEEQFRQRSPLG	4.79
FQELAGKEECAMSEEQFRQRSPLG	4.93
FQELAGKEFCAMSEEQFRQRSPLG	2.56
FQELAGKEGCAMSEEQFRQRSPLG	4.34
FQELAGKEHCAMSEEQFRQRSPLG	3.9
FQELAGKEICAMSEEQFRQRSPLG	3.19
FQELAGKEKCAMSEEQFRQRSPLG	3.61
FQELAGKEMCAMSEEQFRQRSPLG	3.41
FQELAGKENCAMSEEQFRQRSPLG	4.37
FQELAGKEPCAMSEEQFRQRSPLG	3.83
FQELAGKEQCAMSEEQFRQRSPLG	4.25
